Experimental findings from patent US6383734B1, “Method to determine inhibition of PAK3 activation of Raf-1” (Advanced Research and Technology Institute, Inc., priority 1998, dated 2002) are described below.

One data set concerns Raf-1 serine 338/339. Put plainly: In vitro kinase assay with Raf-1 peptide and Raf-CR3 as substrates. Format: biochemical, human. The protocol: (§1) B. Kinase assays. Kinase samples were assessed for their ability to phosphorylate 500 μM Raf-1 peptide (33,[…]345) (SEQ ID NO:4) in the presence of 500 μMATP (containing 2 μCi [γ-^32P]-ATP at 30° C. for 10 minutes. Incubations were analyzed by P-81 phosphocellulose paper assay. Phosphorylation of serine 338/339 in Raf-CR3 was determined by similar incubations containing 1 μg of substrate at 30° C. for 30-60 minutes. Proteins were resolved by SDS-PAGE, transferred to Immobilon-P and the dried, Ponceau S-stained membranes were autoradiographed. Raf-1 kinase activity was measured by the coupled assay method using GST-Mek 1, GST-Erk1 and myelin basic protein by the method of D. Stokoe et al., Science, 264, 1463 (1994).
D. Expression of recombinant Raf-CR3 in E. Coli. DNA sequences encoding residues 307-648 of human c-Raf-1 were amplified by polymerase chain reaction using the 5′-primer […] (SEQ ID NO:5) and the 3′-primer […] (SEQ ID NO:6). The amplified DNA was purified, digested with EcoRI and XhoI and cloned into the Stratagene pCAL-n vector. The entire Raf-CR3 coding sequence was verified by termination reaction PCR DNA sequencing. Raf-CR3 D338E339 and A338A339 substitution mutants were generated by site-directed mutagenesis using the Promega Altered SitesTM in vitro mutagenesis system. Raf-CR3-calmodulin binding protein fusions were expressed in E. coli strain BL21 (pLysS). […]

Another data set addresses T1, Raf-1 (Homo sapiens, UniProt P04049).
T1 construct: expressed in transfected cells; host or cells: COS-7
Description: Raf kinase activity after co-transfection of PAK3 constructs with Raf-1 (with or without Ras[V12]) into COS-7 cells. Format: cell-based. The protocol:
as §1
F. Transfections. COS-7 cells were transfected with 10 μg of each plasmid DNA (pcEXV3 containing Ras^[V12], myc-Raf, myc-Raf-CX or pJ3H containing PAK3) by electroporation. Cells were lysed three days post-transfection in the presence of protease and phosphatase inhibitors and Raf-1 kinase activity was then examined as described by Stokoe et al., cited above. Transfection/expression efficiencies were assessed by densitometric scanning of Western blots of immunoprecipitates as well as cell lysates and data sets were normalized accordingly.

As for “Recombinant PAK3: recombinant His-tagged mouse PAK3 from Sf9 cells”, the “stimulation of Raf-1 peptide and Raf-CR3 serine 338/339 kinase activity by GTPase” value in the data set on Raf-1 serine 338/339 (co-incubation with GST-Rac-GTPγS or GST-Cdc42-GTPγS, FIGS. 4c and 4d) is recorded as “stimulated up to six-fold”.
For the substance “p37: 37-kD Raf-1 serine 338/339 kinase purified from rat spleen, a proteolytically cleaved catalytic domain of PAK3”, the “specific activity (Raf-1 peptide phosphorylation)” value in the data set on Raf-1 serine 338/339 (kinase purified from rat spleen, Mono-P eluate) is reported as 19,500 pmol/min/mg.
In the case of “wild type PAK3: wild type p21-activated protein kinase PAK3, expressed from plasmid in COS-7 cells”, in the data set with Raf-1, the “increase of Raf-CX or Ras[V12]-inducible Raf-1 activation on co-expression” value is listed as “did not significantly increase”.
